Laboratory results as given in patent US7358088B2, “Peptides and compositions which modulate apoptosis” (ImmunoGen, Inc., priority 1995, dated 2008).
Ends that are not written are not given here. * marks the point of attachment. Biotin = O=C1N[C@H]2[C@H](CS[C@H]2CCCCC(=O)*)N1

Legend:
[1] = test system: Hela (cervical carcinoma) cells; assay: Transient transfection cell killing assay in Hela cells; format: cell-based, human
Procedure: (§1) Cells were fixed and stained with X-gal at 24 hours post-transfection, and the number of blue cells (β-galactosidase-positive) counted by microscopic examination. B. Mouse Embryonic Fibroblasts (MEF) lacking functional p53 (p53^−/−MEF) were co-transfected as described in(A). C. Hela cells, derived from cervical carcinoma, were co-transfected as described in (A). D. BT549 cells, derived from breast carcinoma, were co-transfected as described in (A).
(§2) The transient transfection assay procedure is similar to that previously described for detecting apoptosis induced by IL-1E-converting enzyme (Miura et al., Cell 75: 653-660 (1993); Kumar et al., Genes Dev. 8: 1613-1626 (1994); Wang et al., Cell 78: 739-750 (1994). One day prior to transfection, Rat-1 cells were plated in 24 well dishes at 3.5X10^4 cells/well. The following day, the cells were transfected with a marker plasmid encoding β-galactosidase (0.16 μg), in combination with an expression plasmid encoding Bak (0.42 μg), by the Lipofectamine procedure (Gibco/BRL). At 24 hours post transfection, cells were fixed and stained with X-Gal to detect J-galactosidase expression in cells that received plasmid DNA (Miura et al., supra). The number of blue cells was counted by microscopic examination and scored as either live (flat blue cells) or dead (round blue cells). […]
(§3) Bak cell killing activity was assessed in several additional cell lines. […]

Rat-1 cells = assay: Transient transfection cell killing assay (loss of β-galactosidase-positive blue cells); format: cell-based; conditions: Rat-1 cells co-transfected with β-galactosidase marker plasmid, 24 hours post transfection, relative to control vector
Procedure: The transient transfection assay procedure is similar to that previously described for detecting apoptosis induced by IL-1E-converting enzyme (Miura et al., Cell 75: 653-660 (1993); Kumar et al., Genes Dev. 8: 1613-1626 (1994); Wang et al., Cell 78: 739-750 (1994). One day prior to transfection, Rat-1 cells were plated in 24 well dishes at 3.5X10^4 cells/well. The following day, the cells were transfected with a marker plasmid encoding β-galactosidase (0.16 μg), in combination with an expression plasmid encoding Bak (0.42 μg), by the Lipofectamine procedure (Gibco/BRL). At 24 hours post transfection, cells were fixed and stained with X-Gal to detect J-galactosidase expression in cells that received plasmid DNA (Miura et al., supra). The number of blue cells was counted by microscopic examination and scored as either live (flat blue cells) or dead (round blue cells). The cell killing activity of Bak in this assay is manifested by a large reduction in the number of blue cells obtained relative to co-transfection of the β-gal plasmid with a control expression vector (i.e., with no bak cDNA insert).
The interpretation that loss of blue cells reflects the cell killing function of Bak is supported by a variety of observations: • 1. Rat-1 cells are rapidly killed by enforced Bak expression in stable transfection assays; • 2.
Enforced bak expression induces apoptosis in stable Rat-1 cell lines transfected with an inducible bak expression plasmid. In order to more rapidly assess the cell killing function of a large number of bak mutants, a transient transfection assay was employed. Rat-1 cells were transfected with a marker plasmid encoding β-galactosidase, in combination with an expression plasmid encoding Bak, or various control plasmids.

[2] = test system: Mouse Embryonic Fibroblasts (MEF) lacking functional p53; assay: Transient transfection cell killing assay in p53-/- fibroblasts; format: cell-based; conditions: p53-/- transformed mouse fibroblasts, co-transfection with β-gal
Procedure: as §1, §2, §3

Bcl-xL [3] = biological target: T1, Bcl-xL (Homo sapiens, UniProt Q07817); assay: Co-immunoprecipitation of epitope-tagged proteins from transfected COS cells; format: cell-based; conditions: anti-HA immunoprecipitation, western blot
Procedure: B). Bak/Bcl-xL interactions detected in transfected cells. Plasmids expressing epitope-tagged forms of Bak and Bcl-xL (HA-Bak and Flag tag-Bcl-xL) were co-transfected into COS cells. HA-Bak was immunoprecipitated (anti-HA IP) from transfected cell lysates and associated Bcl-xL was detected by Western blot analysis with an anti-Flag tag antibody.
COS cells were grown in Dulbecco's modified Eagle's medium (Life Technologies, Inc.) supplemented with 10% bovine calf serum, 2% L-glutamine and 1% pen/strep (Life Technologies, Inc.). Cells were seeded at 2.0×10^5 cells/35 mm well and transfected with expression plasmids 24 hours later using Lipofectamine as described by the supplier (Life Technologies, Inc.). Bak (and Bak mutants) was expressed as a fusion protein with the HA epitope tag at its amino terminus. Bcl-xL was also expressed with an amino terminal epitope tag (Flag; Kodak). At 24 hours post-transfection, cells were washed with phosphate buffered saline and lysed in NP-40 Lysis buffer also containing 1 mM PMSF, […] pepstatin, and […] leupeptin. The lysates were incubated with anti-HA antibody (12CA5, Boehringer Mannheim) for 1 hour and with […] BSA-washed Protein A-agarose beads (50% slurry) for an additional hour. The beads were washed twice with NP-40 lysis buffer followed by two washes with NP-40 lysis buffer without NP-40. […]

[4] = test system: BT549 (breast carcinoma) cells; assay: Transient transfection cell killing assay in BT549 cells; format: cell-based, human
Procedure: as §1, §2, §3

Bcl-xL [5] = biological target: T1, Bcl-xL; assay: In vitro protein binding assay, 35S labeled protein with GST-Bcl-xL on glutathione-agarose beads; parameters: made in house; host or cells: E. coli; conditions: in vitro translated 35S labeled protein; GST alone as specificity control
Procedure: A). Bak/Bcl-xL interactions measured in vitro. ^35S labeled in vitro translated Bak (lane 1) was mixed either with GST-Bcl-xL (lane 2) or GST (lane 3). The complexes were captured on glutathione-agarose beads, and bound ^35S labeled Bak protein was detected by electrophoresis on SDS polyacrylamide gels followed by autoradiography.
The beads were removed by centrifugation and the supernatants were incubated with GST or GST-Bcl-xL (final concentration […]) at 4° C. for 1 hour. The GST fusion proteins and any interacting proteins were recovered by incubation for 1 hour with an additional […] of GSH-agarose beads. The beads were washed twice with NP-40 lysis buffer followed by two washes with NP-40 lysis buffer without NP-40. Proteins were eluted from the beads by incubation in SDS-PAGE sample buffer at 100° C. for 5 min and loaded onto 4-20% SDS-polyacrylamide gels. Following electrophoresis, gels were fixed and incubated in a fluorography enhancing solution (Amplify; Amersham). The gels were dried and subjected to autoradiography at −70° C.

GST-Bcl-xL = biological target: T2, GST-Bcl-xL (Homo sapiens, UniProt Q07817); assay: High through-put screening assay 1: biotinylated GD peptide on GST-Bcl-xL-coated multiwell plates, ELISA; format: binding; conditions: ELISA with streptavidin-conjugated HRP, 4° C. for 1 hour
T2 construct: made in house; host or cells: E. coli
Procedure: Multiwell plates (Nunc Maxisorp) were coated with GST-Bcl-xL and blocked with 1% normal goat serum in PBS. A N-biotinylated GD peptide corresponding to Bak (71-89; […] [SEQ ID NO: 35]) was added and the plates were incubated at 4° C. for 1 hour. The plates were washed to remove unbound GD peptide and the amount of bound peptide was determined by ELISA using streptavidin-conjugated horse radish peroxidase. Coating with GST-Bcl-xL was omitted in the control wells.
According to the present example, multiwell plates coated with GST-Bcl-xL were incubated with a labeled GD domain peptide probe. […] More specifically, wells in a multiwell plate were coated without (control) or with GST-Bcl-xL and then incubated with a GD domain peptide derived from the Bcl-2 homolog Bak (amino acid residues 71-89; […] [SEQ ID NO: 35]). The peptide was labeled by biotinylation at the amino terminus to allow detection and quantitation of bound peptide using streptavidin-conjugated horse radish peroxidase (HRP) in a standard ELISA procedure. […] Compounds that antagonize GD domain-mediated interactions can be conveniently identified using this assay by adding candidate compounds to the wells during the binding step. Those compounds that disrupt the interaction of the biotinylated GD domain peptide with GST-Bcl-xL will cause a decrease in the ELISA signal.

[6] = biological target: T3, Bcl-xL/Bak GD domain interaction (Homo sapiens, UniProt Q07817); assay: High through-put screening assay 2: GST-Bcl-xL binding to biotinylated Bak GD peptide on neutravidin wells, ELISA; conditions: peptide bound to neutravidin-coated wells, ELISA with anti-GST-HRP
T3 construct: made in house; host or cells: E. coli
Procedure: An assay was developed to screen for compounds that block the interaction between the Bcl-2 homologs, Bcl-xL and Bak. A synthetic peptide corresponding to the Bak GD binding domain ([…] [SEQ ID NO: 35]) was biotinylated and bound to wells coated with neutravidin. […] Peptides encompassing the GD domain from various Bcl-2 family members were tested for their ability to block GD domain-mediated interactions in this assay. Peptides tested: Bcl-w [SEQ ID NO: 39] […] ([…]), Bak [SEQ ID NO: 36]([…]), Bak-15 [SEQ ID NO: 37] ([…]), Bak-15L78A [SEQ ID NO: 38] ([…]), control (no peptide).
In a modification of the high through-put screening assay 1 described herein, wells are coated with an avidin derivative, to which a biotinylated peptide/protein is bound. A GST-fusion protein that can interact with the biotinylated peptide/protein is added in the presence or absence of test compounds. The plates are incubated and then unbound GST-fusion protein is removed by washing. The amount of GST-fusion protein specifically bound to the tethered peptide/protein is determined by ELISA using an anti-GST antibody conjugated to horse radish peroxidase. Compounds which block the interaction between the biotinylated peptide/protein and the GST-fusion protein cause a decrease in the ELISA signal.
In a specific example, an assay was developed to screen for compounds that block the interaction between the Bcl-2 homologs, Bcl-xL and Bak. A biotinylated Bak GD domain peptide (amino acid residues 71-89; N-biotinylated […] [SEQ ID NO: 35]) was bound to wells coated with neutravidin. […] Using this assay, peptides from Bcl-2 family members were identified which block the Bcl-xL/Bak GD domain interaction (FIG. 10).

Bip1a = biological target: T4, Bip1a (Homo sapiens, UniProt Q13323); assay: GST-PEM in vitro binding of 35S labeled Bip1a; conditions: GST fusion, in vitro translated 35S labeled Bip1a
T4 construct: host or cells: coupled transcription/translation in rabbit reticulocyte lysate
T4 sequence (Q13323 1-160): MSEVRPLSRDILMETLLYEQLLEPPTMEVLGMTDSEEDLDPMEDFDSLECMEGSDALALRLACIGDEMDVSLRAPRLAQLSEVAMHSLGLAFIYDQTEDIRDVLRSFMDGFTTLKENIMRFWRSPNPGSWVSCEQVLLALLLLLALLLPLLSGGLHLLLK
Excerpt: (§4) Complexes were captured with glutathione-agarose beads, washed, and bound proteins detected by polyacrylamide gel electrophoresis and autoradiography. […] Thus, the GD domain can mediate interaction not only with Bcl-xL but also Bak and Bax.
(§5) Complexes were captured with glutathione-agarose beads, washed, and bound proteins detected by polyacrylamide gel electrophoresis and autoradiography.

Bax = biological target: T5, Bax (Homo sapiens, UniProt Q07812); assay: GST-PEM in vitro binding of 35S labeled Bax; conditions: GST fusion, in vitro translated 35S labeled Bax; GST alone as control
T5 construct: host or cells: coupled transcription/translation in rabbit reticulocyte lysate
Excerpt: as §4, §5

Bak = biological target: T6, Bak (Homo sapiens, UniProt Q16611); assay: GST-PEM in vitro binding of 35S labeled Bak; conditions: GST fusion, in vitro translated 35S labeled Bak; GST alone as control
T6 construct: diminished relative to full length Bak; host or cells: coupled transcription/translation in rabbit reticulocyte lysate
T6 sequence (Q16611 1-211): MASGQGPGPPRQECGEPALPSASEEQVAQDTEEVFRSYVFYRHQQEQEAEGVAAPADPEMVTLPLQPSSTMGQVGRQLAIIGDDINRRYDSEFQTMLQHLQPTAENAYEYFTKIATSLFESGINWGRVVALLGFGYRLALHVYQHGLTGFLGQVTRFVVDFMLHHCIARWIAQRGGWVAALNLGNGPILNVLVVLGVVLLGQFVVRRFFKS
Excerpt: as §4, §5

Bcl-xL [7] = biological target: T1, Bcl-xL; assay: GST-PEM in vitro binding of 35S labeled Bcl-xL; parameters: made in house; host or cells: E. coli; conditions: GST fusion, in vitro translated 35S labeled Bcl-xL; GST alone as control
Excerpt: as §4, §5

T1 sequence (Q07817 whole entry): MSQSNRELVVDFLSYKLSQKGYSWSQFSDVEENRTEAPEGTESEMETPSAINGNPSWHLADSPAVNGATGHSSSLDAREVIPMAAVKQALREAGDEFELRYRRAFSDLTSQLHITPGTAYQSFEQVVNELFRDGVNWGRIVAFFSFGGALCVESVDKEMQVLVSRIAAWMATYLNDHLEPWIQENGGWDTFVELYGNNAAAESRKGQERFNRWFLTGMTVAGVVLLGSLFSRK
T5 sequence (Q07812 whole entry, the tested form may be a part): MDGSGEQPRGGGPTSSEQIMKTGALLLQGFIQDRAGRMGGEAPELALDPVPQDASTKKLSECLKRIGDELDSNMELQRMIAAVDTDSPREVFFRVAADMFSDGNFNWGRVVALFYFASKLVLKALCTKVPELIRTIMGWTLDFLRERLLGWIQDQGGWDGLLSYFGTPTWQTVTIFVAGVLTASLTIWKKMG
T3 sequence (Q07817 whole entry, the tested form may be a part): as the sequence (Q07817 whole entry) above
T2 sequence (Q07817 whole entry): as above

Bak: Bcl-2 related cell death protein, HA-epitope tagged, expressed from plasmid or in vitro translated
cell killing (number of blue cells) [1]: can kill human tumor cells | cell killing activity (reduction in number of blue β-gal expressing cells) (Rat-1 cells): large reduction in the number of blue (β-gal expressing) cells | cell killing (number of blue cells) [2]: greatly reduced the number of blue cells | interaction with Bcl-xL in transfected cells (Bcl-xL [3]): specific Bak/Bcl-xL interaction could also be detected | cell killing (number of blue cells) [4]: can kill human tumor cells | binding to GST-Bcl-xL in vitro (Bcl-xL [5]): binds

MGQVGRQLAIIGDDINRRY (Biotin-MGQVGRQLAIIGDDINRRY) [SEQ ID NO: 35, Bak GD domain peptide, amino acid residues 71-89, biotinylated at the amino terminus]
binding of biotinylated peptide to GST-Bcl-xL-coated wells (GST-Bcl-xL): specifically interacts in a concentration-dependent manner | binding of GST-Bcl-xL to the tethered biotinylated peptide [6]: bind specifically

GST-PEM: portion of Bak (PEM, residues 58-103) encompassing the GD domain fused to GST, bacterially expressed
interaction with Bip1a (Bip1a): does not interact | interaction with Bax (heterodimerization) (Bax): interact specifically | interaction with Bak (homodimerization) (Bak): interact specifically | interaction with Bcl-xL (Bcl-xL [7]): interact specifically
